The nanobody polyreactivity screen of Harvey et al. (2022)

Assay: yeast display, Sf9 membrane polyspecificity reagent, FACS + sequencing; frameworks hold sequencing errors
Method in brief: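 Genes from sorted yeast were amplified by colony PCR, read by MiSeq 2 × 250 sequencing and filtered on CDR length. These cells carried a synthetic nanobody library in Saccharomyces cerevisiae BJ5465 and were sorted by FACS into low and high (top ~1%) gates on anti-HA and streptavidin fluorescence. Polyreactivity is labelled according to the gate of origin.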

Row | Sequence | polyreactivity (PSR sort gate)
1 | QVQLVESGGGLVQAGGSLRLSCAASGFTFRSNAMGWYRQAPGKERELVATISSGGSTYYADSVKGRFTISRDNAKNTVYLQMNSLKPEDTAVYYCAADDLGWWFYSGGEDYDYWGQGTQVTVSS | low polyreactivity
2 | QVQLVESGGGLVQAGGSLRLSCAASGFTFRSYAMGCYRQAPEKEMELVAAISRRGGSTYYADSVKGRFTISRDNAKNTVYLQMNSLKPEDTAVYFCAKDGTGAGTYDYWGQGTQVTVSS | low polyreactivity
3 | QVQLVESGGGLVQAGGSLRLSCAASGFTFRSYAMGWYRQAPGKERELVAAITSTGGRTYYADSVKGRFTISRDTAKNTVYLQMNSLKPEDTAVYYCAAGRKHYAPVHFGYWGQGTQVTVSS | high polyreactivity
4 | QVQLVESGGGLVQAGGSLRLSCAASGFTFRSYDMGWYRQAPGKERELVAAISSTGRTYYADSVKGRFTISRDNAKNTVYLHMYSLNPEDTAVYYCARNIPVSYYRYGYWGQGSQVTVSS | high polyreactivity
5 | QVQLVESGGGLVQAGGSLRLSCAASGFTFRSYTMGWYRQAPGKERELVAAITSGGSTYYADSVKGRFTISRDNAKNTVYLQMNSLKPEDTAVYYCAVTYRWHTFIYDYWGQGTQVTVSS | low polyreactivity
6 | QVQLVESGGGLVQAGGSLRLSCAASGFTFRTNVMGWYRQAPGKERELVASISSTGSTNYADSVKGRFTISRDNAKNTVYLQMNSLKPEDTAVYYCARRYRYRYNYWGQGTQVTVSS | high polyreactivity
7 | QVQLVESGGGLVQAGGSLRLSCAASGFTFRTYAMGWYRQAPGKERELVAAITRNGGTYYADSVKGRFTISRDNAKNTVYLQMHSLNPEDTAVYYCATDPAYWGDQPPEYDYWGQGTQVTVSS | low polyreactivity
8 | QVQLVESGGGLVQAGGSLRLSCAASGFTFRVYAMGWYRQAPGKERELVAAISVRGDSTYYADSVKGRFTISRDNAKNTVYLQMNSLKPEDTAVYYCNAALLGKQYYSNPNYDYWGQGTQVTVSS | high polyreactivity
9 | QVQLVESGGGLVQAGGSLRLSCAASGFTFRWYAMGWYRQAPGKERELVAAIDWSGTTTYADSVKGRFTISRDNAKNTVYLQMNSLKPEDTAVYYCAAVFRRSGYASPYDYWGQGTQVTVSS | high polyreactivity
10 | QVQLVESGGGLVQAGGSLRLSCAASGFTFRYNAMGWYRKPPGKERELVAAITSGGNTNYADSVKGRFTISRDNAKNTVYLQMNSLKPEDTAVYYCNTAWRDYVARLGGVGYDYWGQGTQVTVSS | high polyreactivity
11 | QVQLVESGGGLVQAGGSLRLSCAASGFTFRYNAMGWYRQAPGKERELVAAISRGTITNYADSVKGRFTISRDNAKNTVYLQMNSLKPEDTAVYYCAARYPGHFRFYYWGQGTQVTVSS | high polyreactivity
12 | QVQLVESGGGLVQAGGSLRLSCAASGFTFRYYAMGCYRPAPGKERELVAAISSRGGTTYYADSVKGRFTISRDNAKNTVYLQMNSLKPEDTAVYYCAATYAYGRYYGYVYLGDYWGQGTQVTVSS | high polyreactivity
13 | QVQLVESGGGLVQAGGSLRLSCAASGFTFRYYAMGWFRQAPGKESELVAAITWSGGGTYYADSVKGRFTISRYNAKNTVYLQMNSLKPEDTAVYYCNVYKSHRHQAEYNYWGQGTKVTVSS | high polyreactivity
14 | QVQLVESGGGLVQAGGSLRLSCAASGFTFRYYAMGWYRPAPGKERELVAAISSRGGSTYYADSVKGRFTISRDNAKNTVYLQINSLKPEDTAVYYCAVVRWRHYIFATYDYWGQGTQVTVSS | high polyreactivity
15 | QVQLVESGGGLVQAGGSLRLSCAASGFTFRYYAMGWYRQAPGKEREFVAAIRWRGATTYYADSVKGRFTISRDNAKNTVLLQMNSLKPEDTAVYYCAARYVYNSDRVSERDYWGQGTQVTVSS | high polyreactivity
16 | QVQLVESGGGLVQAGGSLRLSCAASGFTFRYYAMGWYRQAPGKERELVAAIRRSGGSTYYADSVKGRFTISRDNAKNTVYLQMNSLKPEDTAVYYCAAVGPTYWRGYPSGYDYWGQGTQVTVSS | high polyreactivity
17 | QVQLVESGGGLVQAGGSLRLSCAASGFTFRYYAMGWYRQAPGKERELVASITSSGSTNYADSVKGRFTISRDNAKNTVYLQMNSLKPEDTAVYYCAKGWGSDPFRKYGDYWGQGTQVTVSS | high polyreactivity
18 | QVQLVESGGGLVQAGGSLRLSCAASGFTFRYYPMGWYRQAPGKERELVAAISWDRDSTYYADSVKGRFTISRDHAKHTVYFQMNSLKPEDTAVYYCAPEYRSWGRYRYRFNYWGQGTQVTVSS | high polyreactivity
19 | QVQLVESGGGLVQAGGSLRLSCAASGFTFRYYTMGWYRQAPGKERELVAAINRSGSTNYADSVKGRFTISRDNAKNTVYLQMNSLKPEDTAVYYCAAAYYGSHGRYDYWGQGTQVTVSS | high polyreactivity
20 | QVQLVESGGGLVQAGGSLRLSCAASGFTFRYYTMGWYRQAPGKETELVAAINTSGAGTYYADSVKGRFTISRDNAKNTVYLQMNSLKPEDTAVYYCAATWYGLDYNYWGQGTQVTVSS | high polyreactivity
21 | QVQLVESGGGLVQAGGSLRLSCAASGFTFRYYTMVWYRQAPGKERELVAAITSSGGNTYYADSVKGRFTISRDNAKNTVYLQMNSLKPEDTAVYYCAADAYPQYNGWSWMDYWGQGTQVTVSS | low polyreactivity
22 | QVQLVESGGGLVQAGGSLRLSCAASGFTFRYYVMGWYRQAPGKERELVAAISTRGGRTYYADSVKGRFTISRDNAKNTVYLQMNSLKPEDTAVYYCAKDAHHSYTWGYGYWGQGTQVTVSS | high polyreactivity

Row | Sequence | polyreactivity (PSR sort gate)
23 | QVQLVESGGGLVQAGGSLRLSCAASGFTFSAYAMGWYRQAPGKERELVAAISTRGGSTRYADSVKGRFTISRDNAKNTVYLQMNSLKPADTAVYSCAADTRSFYRYDYWGQGTQVTVSS | high polyreactivity
24 | QVQLVESGGGLVQAGGSLRLSCAASGFTFSAYTMGWYRQAPGKERELVAAINWSGANTYYADSVKGRFTISRDNAKNTVYLQMNSLKPEDTAVYYCNAEDDYTYDRSFGGYKYDYWGQGTQVTVSS | low polyreactivity
25 | QVQLVESGGGLVQAGGSLRLSCAASGFTFSDNAMVWYRQAPGKERELVAAISEGSGITYDADSVKGRFTISRDNAKNTVNLQMNSLKPEDNAVYYCAADWLSKYDYWGQGTQVTVSS | low polyreactivity
26 | QVQLVESGGGLVQAGGSLRLSCAASGFTFSFYAMGWYRQAPGKERELVAAITNGGSTYYADSVKGRFTISRDNAKNTVYLQMNSLKPEDTAVYYCAAEWDYPWWRIVAVYGYEYWGQGTQVTVSS | low polyreactivity
27 | QVQLVESGGGLVQAGGSLRLSCAASGFTFSFYARGWYIQAPGKERELVAAIDRSGGSTYYADSVKGRFTISRDNAKNTVYLQMNSLKPEDTAVYYCAATVFYGYYYWGQGTQVTVSS | high polyreactivity
28 | QVQLVESGGGLVQAGGSLRLSCAASGFTFSGYAMGWYRQAPGKERELVASISRRGGSTYYADSVKGRFTISRDNAKNTVYLQMNSLKPEDTAVYYCATLRGRLRFGYDYWGQGTQVTVSS | high polyreactivity
29 | QVQLVESGGGLVQAGGSLRLSCAASGFTFSGYAMGWYRQAPGKERELVASITGSGSSTYYADSVKGRFTISRDNAKNNVYLQMNSLKPEDTAVYYCNAQFIGGWWAIYDYWGQGTQVTVSS | high polyreactivity
30 | QVQLVESGGGLVQAGGSLRLSCAASGFTFSKYTMGWYRQAPGQERELVARITRRGGSTYYADSVKGRFTISRDNAKNTVYLQMNSLKPEDTAVYYFAADVYAYNGEYDYWGQGTQVTVSS | high polyreactivity
31 | QVQLVESGGGLVQAGGSLRLSCAASGFTFSLYAMGWYRQAPGKERELVAAISRSGGSTYYADSVKGRFTISRDNAKNTVYLQMNSLNPEDTAVYYCAAREQTYTQRGKKLYYYWGQGTQVTVSS | high polyreactivity
32 | QVQLVESGGGLVQAGGSLRLSCAASGFTFSLYAMGWYRQAPGKERELVAAISSRGGTTYYADSVKGRFTISRDNAKNTVYLQMNSLKPEDTAVYYCAARYVYTRSAFDYWGQGTQVTVSS | high polyreactivity
33 | QVQLVESGGGLVQAGGSLRLSCAASGFTFSLYAMGWYRQAPGKERELVAAITWSGTRTYYADSVKGRFTISRDNAKNTVYLQMNSLKPEDTAVYYCATQGYGYRGWRNLYDYDYWGQGTQVTVSS | high polyreactivity
34 | QVQLVESGGGLVQAGGSLRLSCAASGFTFSLYDMGWYRQAPGKERELVAAISSDGSTNYADSVKGRFTISRDNAKNTVYLQMNSLKPEDTAVYYCAADETFLSYWLNYWGQGTQVTLSS | low polyreactivity
35 | QVQLVESGGGLVQAGGSLRLSCAASGFTFSLYDMGWYRQAPGKERQLVADINGSGGSTYYADSVKGRFTISRDNAKNTVYLQMNSLKPEDTAVYYCAAGPPSRWWYIVDYGYWGQGTQVTVSS | high polyreactivity
36 | QVQLVESGGGLVQAGGSLRLSCAASGFTFSPNAMGWYRQAPGKERELVAAIDWSGDRTYSADSVKGRFTISRDNAKNTVYLQMNSLKPEDTAVYYCNVVRRSPGDYSYFYWGQGTQVTVSS | low polyreactivity
37 | QVQLVESGGGLVQAGGSLRLSCAASGFTFSPYAMGWYRQATGKERELVAAIRWTDGSTYYADSVKGRFTISRDNAKNTVYLQMNSLKPEDTAVYYCAAYWYHNIGGYGPGLNYWGEGTQVTVSS | high polyreactivity
38 | QVQLVESGGGLVQAGGSLRLSCAASGFTFSQYAAMGWYRQAPGKERELVAAINISGSTNYADSVKGRFTISRDNAKNTVYLQMNSLKPEDTAVYYCNADVAPGIFYGYDSWGQGTQVTVSS | low polyreactivity
39 | QVQLVESGGGLVQAGGSLRLSCAASGFTFSQYAMGWYRQAPGKERELVAAINSRGGSTYYADSVKGRFTISRDNAKNTVYLQINSLKPEDTAVYYCNAVISGYPYEYDYWGQGTQVTVSS | high polyreactivity
40 | QVQLVESGGGLVQAGGSLRLSCAASGFTFSQYAMGWYRQAPGKERELVAAITFSGDSTYYADSVKGRFTISRDNAKNTVYLQMNSLKPEDTAVYYCNADDWWGGYDYWGQGTQVTVSS | low polyreactivity
41 | QVQLVESGGGLVQAGGSLRLSCAASGFTFSRNAMGWYRQAPGKERELDAAITSSGGSTYYADSVKGRFTISRDNAKNTVYLQMNSLKPEDTAVYYCNVVPIWRKYLSQIYGYWGQGTQVTVSS | high polyreactivity
42 | QVQLVESGGGLVQAGGSLRLSCAASGFTFSRNDMGWYRQAPGKERELLASITTSGGGTYYADSVKGRFTISRDNAKNTVYLQMNSLKPEDTAVYYCAKDWFPWAGYYDFGYWGQGTQVTVSS | low polyreactivity
43 | QVQLVESGGGLVQAGGSLRLSCAASGFTFSRYAMGWYRQAPGKERELVAAITSGGSTYYADSVKGRFTISRDNAMNTVYLQMNSLKPEDTAVYYCAVGVAEFFGYGYWGQGTQVTVSS | high polyreactivity
